Residue numbers refer to the chain shown, from its start. Names and notes keep the numbering of the source.
Assays:
[1] = target: T1, wild type human PD-L1-Fc protein (SEQ ID NO: 107) (human); experiment: ELISA on captured PD-L1-Fc, as in Example 18A
T1 construct: Extracellular human PD-L1 (amino acid 19-238) with Fc fragment of human IgG1, expressed in 293T cells and used as culture supernatant; also called WT PD-L1; wild-type PD-L1

[2] = target: T2, human PD-L1-Fc mutant E58A (human); experiment: ELISA on captured PD-L1-Fc, as in Example 18A
T2 construct: Position 58 counts on native human PD-L1 (NP_054862.1); also called E58A mutant
T2 sequence (chain, as listed by the source E58A E58A limits assumed): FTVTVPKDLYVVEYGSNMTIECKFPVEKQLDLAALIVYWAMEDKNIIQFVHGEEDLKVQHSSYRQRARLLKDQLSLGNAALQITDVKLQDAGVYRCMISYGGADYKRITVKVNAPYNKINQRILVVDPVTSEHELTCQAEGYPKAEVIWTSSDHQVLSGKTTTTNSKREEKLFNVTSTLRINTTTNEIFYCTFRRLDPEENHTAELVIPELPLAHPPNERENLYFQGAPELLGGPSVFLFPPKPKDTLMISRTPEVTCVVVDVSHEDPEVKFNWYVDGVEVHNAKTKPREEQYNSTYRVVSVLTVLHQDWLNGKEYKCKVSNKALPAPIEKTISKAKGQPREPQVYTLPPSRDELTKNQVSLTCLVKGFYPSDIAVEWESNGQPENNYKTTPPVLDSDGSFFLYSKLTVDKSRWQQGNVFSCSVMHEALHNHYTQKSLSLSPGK

[3] = target: T3, human PD-L1 expressed on cells (human, UniProt Q9NZQ7 19-290); experiment: flow cytometry (relative mean fluorescence) on human peripheral blood cells activated 3 days with anti-CD3 and anti-CD28; detection with anti-human IgG-APC
T3 construct: whole, on cells; also called hPD-L1 expressed on HCC827; hPD-L1 on MC38/hPD-L1 cells
T3 sequence (Q9NZQ7 19-290): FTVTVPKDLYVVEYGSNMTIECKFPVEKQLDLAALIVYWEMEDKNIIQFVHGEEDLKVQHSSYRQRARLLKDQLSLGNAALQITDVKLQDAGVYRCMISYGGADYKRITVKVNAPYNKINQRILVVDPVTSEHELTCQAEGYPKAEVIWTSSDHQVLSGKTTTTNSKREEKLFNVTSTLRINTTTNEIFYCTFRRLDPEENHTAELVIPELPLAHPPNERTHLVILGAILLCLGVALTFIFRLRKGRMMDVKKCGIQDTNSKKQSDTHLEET

[4] = target: T4, Recombinant Human PD-L1/CD274 Protein (hPD-L1-his) (human, UniProt Q9NZQ7 19-238); experiment: ELISA on coated hPD-L1-his; bound at pH7.4, then 2 h at pH5.5
T4 construct: range 19-238; ACRO Biosystem PD1-H5229, made in HEK293; also called human PD-L1-his; hPD-L-his
T4 sequence (Q9NZQ7 other isoform, or with tags, fused parts or gaps limits assumed): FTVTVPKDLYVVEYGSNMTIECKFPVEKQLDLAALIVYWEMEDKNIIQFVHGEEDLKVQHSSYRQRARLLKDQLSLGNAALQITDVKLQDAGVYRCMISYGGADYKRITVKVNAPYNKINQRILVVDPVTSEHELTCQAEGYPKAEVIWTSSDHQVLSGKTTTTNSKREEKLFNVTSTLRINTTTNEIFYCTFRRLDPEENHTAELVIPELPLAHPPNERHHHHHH
Method: The pH-dependent binding affinity was further measured at various pH values, such as pH4, pH4.5, pH5.0, pH5.5, pH6.0, pH7.4. The measurement by ELISA was conducted similarly to the method described above. High-binding clear polystyrene 96 well plates were coated with 100 μl/well of a 0.5 μg/ml hPD-L1-his in high pH coating buffer and incubated overnight at 4° C. Then the coated plates were washed 3 times with shaking for 10s on an automatic plate washer with PBS+0.1% Tween 20 (Amresco). Then 200 μl of blocking buffer (1% BSA (Solarbio)+1% normal goat serum (Solarbio)+0.05% Tween 20 (Amresco)) was added to each well and the plates were then incubated for 2 hours at room temperature and washed 3 times as above. […] The plates were then washed once with 250 μl/well washing buffer at pH7.4, pH6.0, pH5.5, pH5.0, pH4.5 or pH4.0 and then 100 μl/well pH7.4 or pH5.5 washing buffer was added and the incubation was continued for 2 hours at RT with shaking. Afterwards, the plates was washed 3 times washing buffer at pH7.4 and 100 μl/well of a solution of HRP conjugated goat anti-hIgG HRP antibody (1:20000, Abcam) in pH7.4 dilution buffer was then added to each well of the plate. After that the plates were allowed to incubate for 60 min at room temperature followed by washing 3 times with 250 μl/well pH7.4 washing buffer. […] The plates were read on a Thermo Multiscan FC at 450 nm (see FIG. 23A-23F). […]

[5] = target: T4, Recombinant Human PD-L1/CD274 Protein …; experiment: ELISA on coated hPD-L1-his; bound at pH7.4, then 2 h at pH7.4
Method: (§1) The pH-dependent binding affinity was further measured at various pH values, such as pH4, pH4.5, pH5.0, pH5.5, pH6.0, pH7.4. The measurement by ELISA was conducted similarly to the method described above. High-binding clear polystyrene 96 well plates were coated with 100 μl/well of a 0.5 μg/ml hPD-L1-his in high pH coating buffer and incubated overnight at 4° C. Then the coated plates were washed 3 times with shaking for 10s on an automatic plate washer with PBS+0.1% Tween 20 (Amresco). Then 200 μl of blocking buffer (1% BSA (Solarbio)+1% normal goat serum (Solarbio)+0.05% Tween 20 (Amresco)) was added to each well and the plates were then incubated for 2 hours at room temperature and washed 3 times as above. […] The plates were then washed once with 250 μl/well washing buffer at pH7.4, pH6.0, pH5.5, pH5.0, pH4.5 or pH4.0 and then 100 μl/well pH7.4 or pH5.5 washing buffer was added and the incubation was continued for 2 hours at RT with shaking. Afterwards, the plates was washed 3 times washing buffer at pH7.4 and 100 μl/well of a solution of HRP conjugated goat anti-hIgG HRP antibody (1:20000, Abcam) in pH7.4 dilution buffer was then added to each well of the plate. After that the plates were allowed to incubate for 60 min at room temperature followed by washing 3 times with 250 μl/well pH7.4 washing buffer. Finally, 100 μl/well of TMB was added to each well for 15 min and the reaction was terminated using 50 μl/well of 0.16M/L sulfuric acid. The plates were read on a Thermo Multiscan FC at 450 nm (see FIG. 23A-23F). The measurements were performed in triplicate.

[6] = target: T3, human PD-L1 expressed on cells; experiment: blocking FACS on HCC827 cells; blocked ligand: biotinylated hPD-1-N297A
Method: Log phase IFN-γ stimulated (500U/ml for 2 days) HCC827 cells were collected and resuspended in blocking buffer (5% BSA+PBS). 2×10\hat{ }5 cells were added to each tube and then washed once with PBS (1500 rpm, 5 mins, RT). […] After washing for three times with PBS, 100 μl/tube streptavidin-PE 1:200 in blocking buffer was added to each tube. The cells were incubated at 4° C. for 1 hr and then washed twice with PBS, followed by resuspending cells in 150 μl PBS for each sample. The cells were then transferred into FACS tube and the binding of the antibodies to the cells were detected with flow cytometry (ACEA Bioscience Novocyte) (see FIGS. 20A and 20B).

[7] = target: hPD-L1 (antigen of the Biacore assay) (human, UniProt Q9NZQ7 19-238, limits assumed); experiment: SPR (Biacore), antibody captured on anti-human Fc, antigen in flow
Chain of hPD-L1 (antigen of the Biacore assay) (Q9NZQ7 19-238 limits assumed): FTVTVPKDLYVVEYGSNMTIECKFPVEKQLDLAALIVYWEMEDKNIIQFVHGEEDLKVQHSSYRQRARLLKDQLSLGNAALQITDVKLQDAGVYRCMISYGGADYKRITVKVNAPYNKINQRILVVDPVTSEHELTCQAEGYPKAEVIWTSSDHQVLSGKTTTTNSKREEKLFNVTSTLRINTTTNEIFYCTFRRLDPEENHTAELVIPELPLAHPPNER
In short: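 Antibody captured to 200–300 RU on an anti-human Fc CM5 surface, with an uncaptured flow cell as reference; antigen injected at varying concentrations, 180 s association, in HBS-EP pH 7.4. Regeneration with glycine pH 1.5 for 120 s; reference-subtracted signals evaluated.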

[8] = target: T4, Recombinant Human PD-L1/CD274 Protein …; experiment: ELISA on coated hPD-L1-his
[9] = target: T4, Recombinant Human PD-L1/CD274 Protein …; experiment: ELISA, coated hPD-L1-his, acidic wash and incubation after binding at pH7.4
Method: as §1

[10] = target: T5, Human PD-L1/CD274 with C-Fc Tag (hPD-L1-Fc) (human, UniProt Q9NZQ7 19-238); experiment: blocking ELISA on coated hPD-L1-Fc; blocked ligand: biotinylated hPD-1-N297A
T5 construct: range 19-238; ACRO Biosystem PD1-H5258, made in HEK293; also called human PD-L1-Fc; not shown: Fc fragment of human IgG1 at C-terminus
T5 sequence (Q9NZQ7 19-238 limits assumed): as above

[11] = target: T4, Recombinant Human PD-L1/CD274 Protein …; experiment: ELISA on coated hPD-L1-his; bound at pH7.4, then 2 h at pH5.5; remark: listed apart in the source
[12] = target: T4, Recombinant Human PD-L1/CD274 Protein …; experiment: ELISA on coated hPD-L1-his; bound at pH7.4, then 2 h at pH7.4; remark: listed apart in the source
[13] = target: T5, Human PD-L1/CD274 with C-Fc Tag …; experiment: blocking ELISA on coated hPD-L1-Fc; blocked ligand: biotinylated hPD-1-Fc-N297A
Method: High-binding clear polystyrene 96 well plates (Nunc) were coated with 100 μl/well of coating solution consisting of 0.5 μg/ml hPD-L1-Fc overnight at 4° C. Then washed once on an automatic plate washer using washing buffer PBS+0.1% Tween 20 (Sigma). 200 μl of blocking buffer (PBS+1% BSA+1% normal goat serum+0.05% Tween-20) was added to each well and incubated for 2 hours at room temperature. Then add serial diluted antibodies (from 10 μg/ml to 0.0006 μg/ml) with dilution buffer (PBS+1% BSA+1% normal goat serum+0.01% Tween-20) and incubate for 1 hour at RT. The plates were then washed 3 times using the method described above. […] After the plates were washed 3 times, 100 μl/well of a solution of HRP conjugated Neutravidin antibody (Pierce) diluted in dilution buffer was then added to each well of the plate. After that the ELISA plates were allowed to incubate for 60 min at RT then plates were washed 3 times with 250 μl/well washing buffer. Finally, 100 μl/well of TMB was added to each well and reaction was terminated using 0.64M H₂SO₄. The plates were read on a Thermo Multiscan FC at 450 nM (see FIG. 4A).

[14] = target: T6, Recombinant Mouse PD-L1/CD274 Protein (mPD-L1-his) (mouse, UniProt Q9EP73 19-238); experiment: ELISA, 20 ug/ml antibody on coated mouse PD-L1 (his-tagged per text, mPD-L1-Fc per sheet title)
T6 construct: range 19-238; ACRO Biosystem PD1-M5220; also called mouse PD-L1-his
T6 sequence (Q9EP73 other isoform, or with tags, fused parts or gaps limits assumed): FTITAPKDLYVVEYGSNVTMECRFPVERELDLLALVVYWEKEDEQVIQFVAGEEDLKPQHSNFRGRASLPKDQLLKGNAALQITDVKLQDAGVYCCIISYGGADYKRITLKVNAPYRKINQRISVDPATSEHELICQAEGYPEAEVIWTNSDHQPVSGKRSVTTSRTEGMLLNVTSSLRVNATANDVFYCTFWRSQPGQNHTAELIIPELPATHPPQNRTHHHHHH
In short: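 Wells coated overnight at 4 °C with 1 μg/ml mouse PD-L1-his, blocked 2 h with BSA/goat serum buffer; purified hybridoma mouse antibodies at 20 μg/ml bound 1 h at RT. Detection by HRP goat anti-mouse Fc (60 min, RT), TMB, acid stop, absorbance at 450 nm.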

[15] = target: T1, wild type human PD-L1-Fc protein (SEQ …); experiment: ELISA on hPD-L1-Fc captured from 293T supernatant, 0.5 ug/ml antibody

T1 sequence (chain, as listed by the source limits assumed): as the sequence (chain, as listed by the source E58A E58A limits assumed) above, with A40E counted along it

B1: 23F11-H4L4 (antibody, V domains shown)
VH: QVQLVQSGAEVKKPGASVKLSCKASGYIFTTYWMHWVKQRPGQGLEWIGMIQPNSGGTKYNEKFKKKATLTVDKSISTAYMELSRLTSDDTAVYYCARGAGTVDYFDYWGQGSTLTVSS
VL: DIVLTQSPASLAVSVGQRATITCRASESVDIYGNSFMHWYQQKPGQPPKLLIYRASNLESGIPARFSGSGSRTDFTLTINPVEANDTATYYCQQSTEDPYTFGGGTKLEIK
notes: Human IgG1 constant region with N297A; biotinylated in the alanine-scan ELISA; also called 23F11-H4L4-bio; humanized 23F11
Mean OD450 [1]: 1.25 OD450
OD450 nM of sample-1 [1]: 1.18 OD450
OD450 nM of sample-2 [1]: 1.33 OD450
% of binding of Ab to E58A mutant vs. that to WT PD-L1 [2]: 9.2%
Mean OD450 [2]: 0.116 OD450
OD450 nM of sample-1 [2]: 0.129 OD450
OD450 nM of sample-2 [2]: 0.103 OD450
EC50 [3]: 0.0305 µg/mL
EC50 (read off the curve) [4]: ~0.01 µg/mL
EC50 (read off the curve) [5]: ~0.007 µg/mL
IC50 (read off the curve) [6]: ~0.03 µg/mL
Kd [7]: 65.4 nM
koff [7]: 0.0304 s⁻¹
kon [7]: 465000 M⁻¹ s⁻¹
EC50 (read off the curve) [8]: ~0.001 µg/mL
binding signal at pH5 as percent of the signal at pH7.4 [9]: < 50%
binding signal at pH5.5 as percent of the signal at pH7.4 [9]: < 75%
IC50 (read off the curve) [10]: ~0.03 µg/mL

B2: 23F11-H4L4 (produced in CHO cells) (antibody, V domains shown)
VH: B1 VH
VL: B1 VL with N85Q
notes: also called 23F11-H4L4 (CHO cell derived); 23F11 H4L4 CHO
IC50 (read off the curve) [6]: ~0.06 µg/mL
EC50 (read off the curve) [11]: ~0.009 µg/mL
EC50 (read off the curve) [12]: ~0.008 µg/mL

B3: 21F11 (antibody, V domains shown)
VH: QVQLQQPGAELVKPGASVKLSCKASGYTFTSNWMHWVKQRPGQGLEWIGMMHPNSGSINYNEKFKNKATLTADKSSSTAYMQLSSLTSEDSAVYYCARSYYGSSPYYFDYWGQGTTLTVSS
VL: DIQMTQTTSSLSASLGDRVTISCRASQDISNYLNWYQQKPDGTVKLLIYYTSRLHSGVPSRFSGSGSGTDFSLTISNLEEEDIATYFCQQGDTLPWTFGGGTKLEIK
notes: Mouse monoclonal from hybridoma; also called mouse monoclonal antibody 21F11
IC50 (read off the curve) [13]: ~0.2 µg/mL
binding result [14]: no binding (tested: 20 ug/ml)
binding result [15]: binds

— patent publication US20210009693A1 (MABSPACE BIOSCIENCES SUZHOU, published 2021)
